This passage reports protein stability index results from the supplement of paper PMC10567573.

A short description of the data set: protein stability index of a GFP-peptide fusion (GPS, HEK-293T) (PSI 1-6); higher = more stable. As to conditions: c terminus: a fixed tail appended.

± gives the standard deviation.
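Also: 24-mer peptide tiles fused after GFP, lentivirally expressed, FACS-sorted into six equal bins by GFP/DsRed ratio, decoded by Illumina sequencing, PSI is the read-weighted mean bin number.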

Turning to FPEFCSSPSPPVEVKIEEPVSMEM [INTS3], the protein stability index is 4.65 ± 0.32 (treatment: DMSO) and 4.82 ± 0.27 (treatment: MLN4924 1 uM, 8 h).

As to FPKINHGILYDEEKYKPFSQVPTG [CFHR2], the protein stability index worked out at 2.4 ± 0.28 (treatment: DMSO) and 3.36 ± 0.34 (treatment: MLN4924 1 uM, 8 h).

For FQQNHLFWLQNSSPSSDRVSAIIW [PHTF1], the protein stability index worked out at 2.26 ± 0.6 (treatment: DMSO) and 2.43 ± 0.49 (treatment: MLN4924 1 uM, 8 h).

As for FQVNKLMKKIKKLENDTISKQLTL [CCDC6], the protein stability index (treatment: DMSO) was 2.26 ± 0.12 and the protein stability index (treatment: MLN4924 1 uM, 8 h) was 2.38 ± 0.33.

As for FRFAPNHTKELEDKVIELHKSHRG [EPB41L3], the protein stability index (treatment: DMSO) is 2.88 ± 0.58 and the protein stability index (treatment: MLN4924 1 uM, 8 h) was 3.2 ± 0.68.

As to FRLVEKSCPEGDASECPQATNAKD [PPEF2], the protein stability index (treatment: DMSO) is 5.11 ± 0.21 and the protein stability index (treatment: MLN4924 1 uM, 8 h) turned out to be 5.41 ± 0.28.

As to FSDDEEDLNSKGKKREFRFHPIKE [INTS3], the protein stability index runs as follows: (treatment: DMSO) 3.48 ± 0.68; (treatment: MLN4924 1 uM, 8 h) 4.04 ± 0.71.

FSLEQQLDDEDDDEEDCPNPEEYN [SRPK2]: the protein stability index runs as follows: (treatment: DMSO) 5.61 ± 0.27; (treatment: MLN4924 1 uM, 8 h) 5.71 ± 0.13.

Consider FTRPNEKGEYEVAEGIGSTVFRAI [BTBD10], for which the protein stability index runs as follows: (treatment: DMSO) 3.18 ± 0.42; (treatment: MLN4924 1 uM, 8 h) 3.46 ± 0.38.

With FVAFAAKLWSFFIYLLRRQIRTVI [CTDNEP1], the protein stability index is 3.29 ± 0.16 (treatment: DMSO) and 3.3 ± 0.31 (treatment: MLN4924 1 uM, 8 h).

Turning to FVELQGFLAAEQDIREEIRKVVQS [TSN], the protein stability index worked out at 2.21 ± 0.41 (treatment: DMSO) and 2.48 ± 0.82 (treatment: MLN4924 1 uM, 8 h).

For FVVGNCLQIASDSHQYDRIYCGAG [PCMTD1], the protein stability index stood at 2.45 ± 0.38 (treatment: DMSO) and 2.62 ± 1 (treatment: MLN4924 1 uM, 8 h).

On to FYPVMLILFLVIGGMLNFMMHDQR [SOAT2], for which the protein stability index is, setting by setting: (treatment: DMSO) 3.34 ± 0.36; (treatment: MLN4924 1 uM, 8 h) 2.95 ± 0.11.

As for GADYPVDGLPDLGHAQDLMDGLPP [CTNNB1], the protein stability index runs as follows: (treatment: DMSO) 4.95 ± 0.24; (treatment: MLN4924 1 uM, 8 h) 5.17 ± 0.068.

For the sequence GASSLPTTMNYPLWSQSYEDSSNQ [MAGEA3], the protein stability index turned out to be 4.42 ± 0.11 (treatment: DMSO) and 4.57 ± 0.15 (treatment: MLN4924 1 uM, 8 h).

On to GCLLDDGLEGLFEDIDTSMYDNEL [SERTAD1], for which the protein stability index turned out to be 4.28 ± 0.48 (treatment: DMSO) and 4.32 ± 0.42 (treatment: MLN4924 1 uM, 8 h).

Take GCRLPSISSTTCGRQLEKVPEKRD [SPATS1]: the protein stability index (treatment: DMSO) came to 3.98 ± 0.36 and the protein stability index (treatment: MLN4924 1 uM, 8 h) is 3.84 ± 0.22.

Take GDAFGSSASEPQPASQAASSSSAS [SNAP91]: the protein stability index runs as follows: (treatment: DMSO) 5.48 ± 0.16; (treatment: MLN4924 1 uM, 8 h) 5.32 ± 0.31.

Regarding GDESSLLLNAASTVARPVFTEYQA [RHOBTB3], the protein stability index worked out at 3.57 ± 0.29 (treatment: DMSO) and 3.52 ± 0.29 (treatment: MLN4924 1 uM, 8 h).

GDKSESPDEANVGKHPKDKTEDEN [TOR1AIP2]: the protein stability index is, setting by setting: (treatment: DMSO) 5.55 ± 0.2; (treatment: MLN4924 1 uM, 8 h) 5.44 ± 0.46.

On to GDLFNGRYHVIRKLGWGHFSTVWL [SRPK2], for which the protein stability index stood at 2.19 ± 0.07 (treatment: DMSO) and 2.17 ± 0.81 (treatment: MLN4924 1 uM, 8 h).

Turning to GDLSGGQVLKKIAQKALDLPSSGE [HMOX1], the protein stability index reads like this: (treatment: DMSO) 4.77 ± 0.37; (treatment: MLN4924 1 uM, 8 h) 4.8 ± 0.13.

In the case of GDNPYMYPEQSKGFHKAGSMLPPV [SPATS1], the protein stability index came out at 3.37 ± 0.16 (treatment: DMSO) and 3.35 ± 0.27 (treatment: MLN4924 1 uM, 8 h).

As for GDRLQFNQLSQAELDELASKAPVL [EFHC1], the protein stability index by setting is: (treatment: DMSO) 4.25 ± 0.42; (treatment: MLN4924 1 uM, 8 h) 4.72 ± 0.36.

Consider GEQVGRGPGFHAGTSALWRHLRSA [ZBED3], for which the protein stability index runs as follows: (treatment: DMSO) 3.35 ± 0.13; (treatment: MLN4924 1 uM, 8 h) 3.27 ± 0.27.

For the sequence GFSPSYEFFAVTRFLVGMMNGGMS [SLC22A15], the protein stability index by setting is: (treatment: DMSO) 2.54 ± 1.2; (treatment: MLN4924 1 uM, 8 h) 2.28 ± 0.4.

For the sequence GGAICGGPDHRLRLWRLFQTLDVN [SLC25A25], the protein stability index was determined as 2.33 ± 0.27 (treatment: DMSO) and 2.48 ± 0.42 (treatment: MLN4924 1 uM, 8 h).

For the sequence GGANDRWVRSVSFSHDGLHVASLA [WSB1], the protein stability index stood at 3.08 ± 0.3 (treatment: DMSO) and 3.16 ± 0.42 (treatment: MLN4924 1 uM, 8 h).

Regarding GGDLEEQQHAEGSPEPGTPAAPTP [DNAAF3], the protein stability index turned out to be 5.61 ± 0.26 (treatment: DMSO) and 5.54 ± 0.31 (treatment: MLN4924 1 uM, 8 h).

As for GGGLLKYSNLLVRDFRPTDQEEIK [TENT5C], the protein stability index is, setting by setting: (treatment: DMSO) 3.79 ± 0.32; (treatment: MLN4924 1 uM, 8 h) 3.75 ± 0.6.

Consider GGRLENQKPRGLEGGVLRGSKLEK [ZSWIM9], for which the protein stability index is 4.91 ± 0.68 (treatment: DMSO) and 4.9 ± 0.65 (treatment: MLN4924 1 uM, 8 h).

GGVGGSSRARSASSPRGMVRVCDL [ANKRD17]: the protein stability index is, setting by setting: (treatment: DMSO) 3.97 ± 0.28; (treatment: MLN4924 1 uM, 8 h) 3.97 ± 0.36.

As for GHRYPCFFNTLHVGGTIRTCQKFL [POP5], the protein stability index runs as follows: (treatment: DMSO) 2.23 ± 0.48; (treatment: MLN4924 1 uM, 8 h) 2.03 ± 0.21.

Take GHSQPDGAYSSASSFSRPLGYPYV [DLX1]: the protein stability index is 3.35 ± 0.14 (treatment: DMSO) and 3.17 ± 0.29 (treatment: MLN4924 1 uM, 8 h).

As to GIIVKDARLNGSVASYILASHNGI [TENT5D], the protein stability index (treatment: DMSO) was determined as 2.66 ± 0.045 and the protein stability index (treatment: MLN4924 1 uM, 8 h) amounted to 2.189 ± 0.003.

GKAYRFLFGFSAVSIMYLVLVLAV [JAGN1]: the protein stability index worked out at 2.22 ± 0.1 (treatment: DMSO) and 2.12 ± 0.35 (treatment: MLN4924 1 uM, 8 h).
